In publication PMC2577338 one finds Kd data, which are given here for 1 substance.

For test [1], the target named is S. cerevisiae ribosomes with L10 R7L (S. cerevisiae) (UniProt P41805).
For test [2], the target named is S. cerevisiae ribosomes with L10 R7P (S. cerevisiae) (UniProt P41805).
In test [3] the target is S. cerevisiae ribosomes with L10 R7Q (S. cerevisiae) (UniProt P41805).
For test [4], the target named is S. cerevisiae ribosomes with L10 Y11C (S. cerevisiae) (UniProt P41805).
Test [5] concerns the target S. cerevisiae ribosomes with L10 Y9C (S. cerevisiae) (UniProt P41805).
Test [6] has as its target S. cerevisiae ribosomes with L10 Y9N (S. cerevisiae) (UniProt P41805).
Test [7] deals with wild-type S. cerevisiae ribosomes (wild-type L10) (S. cerevisiae) (UniProt P41805).

Take “eEF2 (eukaryotic elongation factor 2) (from UniProt P32324 1-842) (natural protein)”: the dissociation constant Kd (commonly a measure of binding affinity in units of concentration) in test [1] is 10.7 nM; in test [2], 6.6 nM; in test [3], 6.1 nM; in test [4] it was 16.6 nM; in test [5], 5.2 nM; in test [6] it was 9.7 nM. Besides, the Kd in test [7] is 10.8 nM.
